Data: article PMC8298264, “Function of cofactor Akirin2 in the regulation of gene expression in model human neutrophil-like HL60 cells” (Bioscience Reports, 2021)

B1: sp¦O75533¦SF3B1_HUMAN (protein, UniProt O75533 1-1304, looked up)
Splicing factor 3B subunit 1: MAKIAKTHEDIEAQIREIQGKKAALDEAQGVGLDSTGYYDQEIYGGSDSRFAGYVTSIAATELEDDDDDYSSSTSLLGQKKPGYHAPVALLNDIPQSTEQYDPFAEHRPPKIADREDEYKKHRRTMIISPERLDPFADGGKTPDPKMNARTYMDVMREQHLTKEEREIRQQLAEKAKAGELKVVNGAAASQPPSKRKRRWDQTADQTPGATPKKLSSWDQAETPGHTPSLRWDETPGRAKGSETPGATPGSKIWDPTPSHTPAGAATPGRGDTPGHATPGHGGATSSARKNRWDETPKTERDTPGHGSGWAETPRTDRGGDSIGETPTPGASKRKSRWDETPASQMGGSTPVLTPGKTPIGTPAMNMATPTPGHIMSMTPEQLQAWRWEREIDERNRPLSDEELDAMFPEGYKVLPPPAGYVPIRTPARKLTATPTPLGGMTGFHMQTEDRTMKSVNDQPSGNLPFLKPDDIQYFDKLLVDVDESTLSPEEQKERKIMKLLLKIKNGTPPMRKAALRQITDKAREFGAGPLFNQILPLLMSPTLEDQERHLLVKVIDRILYKLDDLVRPYVHKILVVIEPLLIDEDYYARVEGREIISNLAKAAGLATMISTMRPDIDNMDEYVRNTTARAFAVVASALGIPSLLPFLKAVCKSKKSWQARHTGIKIVQQIAILMGCAILPHLRSLVEIIEHGLVDEQQKVRTISALAIAALAEAATPYGIESFDSVLKPLWKGIRQHRGKGLAAFLKAIGYLIPLMDAEYANYYTREVMLILIREFQSPDEEMKKIVLKVVKQCCGTDGVEANYIKTEILPPFFKHFWQHRMALDRRNYRQLVDTTVELANKVGAAEIISRIVDDLKDEAEQYRKMVMETIEKIMGNLGAADIDHKLEEQLIDGILYAFQEQTTEDSVMLNGFGTVVNALGKRVKPYLPQICGTVLWRLNNKSAKVRQQAADLISRTAVVMKTCQEEKLMGHLGVVLYEYLGEEYPEVLGSILGALKAIVNVIGMHKMTPPIKDLLPRLTPILKNRHEKVQENCIDLVGRIADRGAEYVSAREWMRICFELLELLKAHKKAIRRATVNTFGYIAKAIGPHDVLATLLNNLKVQERQNRVCTTVAIAIVAETCSPFTVLPALMNEYRVPELNVQNGVLKSLSFLFEYIGEMGKDYIYAVTPLLEDALMDRDLVHRQTASAVVQHMSLGVYGFGCEDSLNHLLNYVWPNVFETSPHVIQAVMGALEGLRVAIGPCRMLQYCLQGLFHPARKVRDVYWKIYNSIYIGSQDALIAHYPRIYNDDKNTYIRYELDYIL
B2: sp¦Q14C86¦GAPD1_HUMAN (protein, UniProt Q14C86 1-1478, looked up)
GTPase-activating protein and …: MVKLDIHTLAHHLKQERLYVNSEKQLIQRLNADVLKTAEKLYRTAWIAKQQRINLDRLIITSAEASPAECCQHAKILEDTQFVDGYKQLGFQETAYGEFLSRLRENPRLIASSLVAGEKLNQENTQSVIYTVFTSLYGNCIMQEDESYLLQVLRYLIEFELKESDNPRRLLRRGTCAFSILFKLFSEGLFSAKLFLTATLHEPIMQLLVEDEDHLETDPNKLIERFSPSQQEKLFGEKGSDRFRQKVQEMVESNEAKLVALVNKFIGYLKQNTYCFPHSLRWIVSQMYKTLSCVDRLEVGEVRAMCTDLLLACFICPAVVNPEQYGIISDAPINEVARFNLMQVGRLLQQLAMTGSEEGDPRTKSSLGKFDKSCVAAFLDVVIGGRAVETPPLSSVNLLEGLSRTVVYITYSQLITLVNFMKSVMSGDQLREDRMALDNLLANLPPAKPGKSSSLEMTPYNTPQLSPATTPANKKNRLPIATRSRSRTNMLMDLHMDHEGSSQETIQEVQPEEVLVISLGTGPQLTPGMMSENEVLNMQLSDGGQGDVPVDENKLHGKPDKTLRFSLCSDNLEGISEGPSNRSNSVSSLDLEGESVSELGAGPSGSNGVEALQLLEHEQATTQDNLDDKLRKFEIRDMMGLTDDRDISETVSETWSTDVLGSDFDPNIDEDRLQEIAGAAAENMLGSLLCLPGSGSVLLDPCTGSTISETTSEAWSVEVLPSDSEAPDLKQEERLQELESCSGLGSTSDDTDVREVSSRPSTPGLSVVSGISATSEDIPNKIEDLRSECSSDFGGKDSVTSPDMDEITHGAHQLTSPPSQSESLLAMFDPLSSHEGASAVVRPKVHYARPSHPPPDPPILEGAVGGNEARLPNFGSHVLTPAEMEAFKQRHSYPERLVRSRSSDIVSSVRRPMSDPSWNRRPGNEERELPPAAAIGATSLVAAPHSSSSSPSKDSSRGETEERKDSDDEKSDRNRPWWRKRFVSAMPKAPIPFRKKEKQEKDKDDLGPDRFSTLTDDPSPRLSAQAQVAEDILDKYRNAIKRTSPSDGAMANYESTGDNHDRDLSSKLLYHSDKEVMGDGESAHDSPRDEALQNISADDLPDSASQAAHPQDSAFSYRDAKKKLRLALCSADSVAFPVLTHSTRNGLPDHTDPEDNEIVCFLKVQIAEAINLQDKNLMAQLQETMRCVCRFDNRTCRKLLASIAEDYRKRAPYIAYLTRCRQGLQTTQAHLERLLQRVLRDKEVANRYFTTVCVRLLLESKEKKIREFIQDFQKLTAADDKTAQVEDFLQFLYGAMAQDVIWQNASEEQLQDAQLAIERSVMNRIFKLAFYPNQDGDILRDQVLHEHIQRLSKVVTANHRALQIPEVYLREAPWPSAQSEIRTISAYKTPRDKVQCILRMCSTIMNLLSLANEDSVPGADDFVPVLVFVLIKANPPCLLSTVQYISSFYASCLSGEESYWWMQFTAAVEFIKTIDDRK
B3: sp¦P33176¦KINH_HUMAN (protein, UniProt P33176 2-963, looked up)
Kinesin-1 heavy chain: ADLAECNIKVMCRFRPLNESEVNRGDKYIAKFQGEDTVVIASKPYAFDRVFQSSTSQEQVYNDCAKKIVKDVLEGYNGTIFAYGQTSSGKTHTMEGKLHDPEGMGIIPRIVQDIFNYIYSMDENLEFHIKVSYFEIYLDKIRDLLDVSKTNLSVHEDKNRVPYVKGCTERFVCSPDEVMDTIDEGKSNRHVAVTNMNEHSSRSHSIFLINVKQENTQTEQKLSGKLYLVDLAGSEKVSKTGAEGAVLDEAKNINKSLSALGNVISALAEGSTYVPYRDSKMTRILQDSLGGNCRTTIVICCSPSSYNESETKSTLLFGQRAKTIKNTVCVNVELTAEQWKKKYEKEKEKNKILRNTIQWLENELNRWRNGETVPIDEQFDKEKANLEAFTVDKDITLTNDKPATAIGVIGNFTDAERRKCEEEIAKLYKQLDDKDEEINQQSQLVEKLKTQMLDQEELLASTRRDQDNMQAELNRLQAENDASKEEVKEVLQALEELAVNYDQKSQEVEDKTKEYELLSDELNQKSATLASIDAELQKLKEMTNHQKKRAAEMMASLLKDLAEIGIAVGNNDVKQPEGTGMIDEEFTVARLYISKMKSEVKTMVKRCKQLESTQTESNKKMEENEKELAACQLRISQHEAKIKSLTEYLQNVEQKKRQLEESVDALSEELVQLRAQEKVHEMEKEHLNKVQTANEVKQAVEQQIQSHRETHQKQISSLRDEVEAKAKLITDLQDQNQKMMLEQERLRVEHEKLKATDQEKSRKLHELTVMQDRREQARQDLKGLEETVAKELQTLHNLRKLFVQDLATRVKKSAEIDSDDTGGSAAQKQKISFLENNLEQLTKVHKQLVRDNADLRCELPKLEKRLRATAERVKALESALKEAKENASRDRKRYQQEVDRIKEAVRSKNMARRGHSAQIAKPIRPGQHPAASPTHPSAIRGGGAFVQNSQPVAVRGGGGKQV
B4: sp¦Q9UFN0¦NPS3A_HUMAN (protein, UniProt Q9UFN0 1-247, looked up)
Protein NipSnap homolog 3A: MLVLRSALTRALASRTLAPQMCSSFATGPRQYDGIFYEFRSYYLKPSKMNEFLENFEKNAHLRTAHSELVGYWSVEFGGRMNTVFHIWKYDNFAHRTEVRKALAKDKEWQEQFLIPNLALIDKQESEITYLVPWCKLEKPPKEGVYELATFQMKPGGPALWGDAFKRAVHAHVNLGYTKLVGVFHTEYGALNRVHVLWWNESADSRAAGRHKSHEDPRVVAAVRESVNYLVSQQNMLLIPTSFSPLK
B5: sp¦Q92990¦GLMN_HUMAN (protein, UniProt Q92990 2-594, looked up)
Glomulin: AVEELQSIIKRCQILEEQDFKEEDFGLFQLAGQRCIEEGHTDQLLEIIQNEKNKVIIKNMGWNLVGPVVRCLLCKDKEDSKRKVYFLIFDLLVKLCNPKELLLGLLELIEEPSGKQISQSILLLLQPLQTVIQKLHNKAYSIGLALSTLWNQLSLLPVPYSKEQIQMDDYGLCQCCKALIEFTKPFVEEVIDNKENSLENEKLKDELLKFCFKSLKCPLLTAQFFEQSEEGGNDPFRYFASEIIGFLSAIGHPFPKMIFNHGRKKRTWNYLEFEEEENKQLADSMASLAYLVFVQGIHIDQLPMVLSPLYLLQFNMGHIEVFLQRTEESVISKGLELLENSLLRIEDNSLLYQYLEIKSFLTVPQGLVKVMTLCPIETLRKKSLAMLQLYINKLDSQGKYTLFRCLLNTSNHSGVEAFIIQNIKNQIDMSLKRTRNNKWFTGPQLISLLDLVLFLPEGAETDLLQNSDRIMASLNLLRYLVIKDNENDNQTGLWTELGNIENNFLKPLHIGLNMSKAHYEAEIKNSQEAQKSKDLCSITVSGEEIPNMPPEMQLKVLHSALFTFDLIESVLARVEELIEIKTKSTSEENIGIK
B6: sp¦P23634¦AT2B4_HUMAN (protein, UniProt P23634 1-1241, looked up)
Plasma membrane …: MTNPSDRVLPANSMAESREGDFGCTVMELRKLMELRSRDALTQINVHYGGVQNLCSRLKTSPVEGLSGNPADLEKRRQVFGHNVIPPKKPKTFLELVWEALQDVTLIILEIAAIISLVLSFYRPAGEENELCGQVATTPEDENEAQAGWIEGAAILFSVIIVVLVTAFNDWSKEKQFRGLQCRIEQEQKFSIIRNGQLIQLPVAEIVVGDIAQVKYGDLLPADGILIQGNDLKIDESSLTGESDHVKKSLDKDPMLLSGTHVMEGSGRMVVTAVGVNSQTGIILTLLGVNEDDEGEKKKKGKKQGVPENRNKAKTQDGVALEIQPLNSQEGIDNEEKDKKAVKVPKKEKSVLQGKLTRLAVQIGKAGLLMSALTVFILILYFVIDNFVINRRPWLPECTPIYIQYFVKFFIIGITVLVVAVPEGLPLAVTISLAYSVKKMMKDNNLVRHLDACETMGNATAICSDKTGTLTMNRMTVVQAYIGGIHYRQIPSPDVFLPKVLDLIVNGISINSAYTSKILPPEKEGGLPRQVGNKTECALLGFVTDLKQDYQAVRNEVPEEKLYKVYTFNSVRKSMSTVIRNPNGGFRMYSKGASEIILRKCNRILDRKGEAVPFKNKDRDDMVRTVIEPMACDGLRTICIAYRDFDDTEPSWDNENEILTELTCIAVVGIEDPVRPEVPDAIAKCKQAGITVRMVTGDNINTARAIATKCGILTPGDDFLCLEGKEFNRLIRNEKGEVEQEKLDKIWPKLRVLARSSPTDKHTLVKGIIDSTVGEHRQVVAVTGDGTNDGPALKKADVGFAMGIAGTDVAKEASDIILTDDNFTSIVKAVMWGRNVYDSISKFLQFQLTVNVVAVIVAFTGACITQDSPLKAVQMLWVNLIMDTFASLALATEPPTESLLKRRPYGRNKPLISRTMMKNILGHAFYQLIVIFILVFAGEKFFDIDSGRKAPLHSPPSQHYTIVFNTFVLMQLFNEINSRKIHGEKNVFSGIYRNIIFCSVVLGTFICQIFIVEFGGKPFSCTSLSLSQWLWCLFIGIGELLWGQFISAIPTRSLKFLKEAGHGTTKEEITKDAEGLDEIDHAEMELRRGQILWFRGLNRIQTQIDVINTFQTGASFKGVLRRQNMGQHLDVKLVPSSSYIKVVKAFHSSLHESIQKPYNQKSIHSFMTHPEFAIEEELPRTPLLDEEEEENPDKASKFGTRVLLLDGEVTPYANTNNNAVDCNQVQLPQSDSSLQSLETSV

system: human HL60 cells; test: SWATH-MS proteomics, differential protein representation, akirin2 KO vs WT HL60 cells; format: cell-based; conditions: SWATH-MS, akirin2 KO vs WT HL60 cells, under-represented in KO
Outline: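 Three biological replicates per genotype; 150 µg protein FASP/trypsin digested; IDA library (3 µg digest); SWATH variable windows, 5 µg/sample, 3.6 s cycle; gradient 5–30% B 120 min then 30–60% B 15 min; 1% global FDR; TAS normalization.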

Molecule | Fold Change | Log (Fold Change)
B1 | 0.7121 | -0.1475
B2 | 0.7165 | -0.1448
B3 | 0.7087 | -0.1495
B4 | 0.7109 | -0.1482

same assay, conditions: akirin2 KO vs WT HL60 cells; sheet "Under-represented in KO"

Molecule | Fold Change | Log (Fold Change)
B5 | 0.3264 | -0.4863
B6 | 0.3316 | -0.4794
